The nanobody polyreactivity screen of Harvey et al. (2022)

Assay: yeast display, Sf9 membrane polyspecificity reagent, FACS + sequencing; frameworks hold sequencing errors
Summary of the method: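 Galactose induction of a Saccharomyces cerevisiae BJ5465 synthetic nanobody display library ran 36–48 hours. The cells were then stained for 1 hour at 4 °C with 10% biotinylated, detergent-solubilized Sf9 membrane reagent, pulled down on streptavidin microbeads and FACS-sorted into low and high (top ~1%) gates on expression and reagent-binding fluorescence. Labels for polyreactivity follow the gate of origin.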

Sequence	polyreactivity (PSR sort gate)
QVQLVESGGGLVQAGGSLRLSCAASGYTFDYYAMGWYRQAPGKERELVAAISGSGSRTYYADSVKGRFTISRDNAKNTVYFQMNSLKPEDTAVYYCAAEYYYSDAGNYWGQGTQVTVSS	high polyreactivity
QVQLVESGGGLVQAGGSLRLSCAASGYTFEAYAMGWYRQAPGKERELVAAINYSGGSTYADSVKGRFTISRDNAKNTVYLQMNSLKPEDTAVYYCAAYGTKRYPYDYWGQGTQVTVSS	low polyreactivity
QVQLVESGGGLVQAGGSLRLSCAASGYTFENYVKGWYSQAPGKERELVAAISSRGGSTYYADSVKGRFTISRDNAKNTVYLQMNSLKPEDTAVYYCAARARQTGPYRSRYNYWGQGTQVTVSS	high polyreactivity
QVQLVESGGGLVQAGGSLRLSCAASGYTFFFNVMGWYRQAPGKERELVAAISYSGGSTNYADSVKGRFTISRDNAKNTVYLQMNSLKPEDTAVYYCNARTVSRNGYQDDYWGQGTQVTVSS	low polyreactivity
QVQLVESGGGLVQAGGSLRLSCAASGYTFFLNAMGWYRPAPGNERELVAVITNVGSTYYADSVKGRFTISRDNAKNTVYLQMHSLKPEDTAVYYCAAEYLAYYSGYDYWGQGTQVTVSS	high polyreactivity
QVQLVESGGGLVQAGGSLRLSCAASGYTFFYAMAWYRQAPGKERELVASITSAASTTYADSVKGRFSISRDNAKNTVYLQMNSLKPEDTAVYYCAASHSWWFYPGYYYWGQGTQVTVSS	high polyreactivity
QVQLVESGGGLVQAGGSLRLSCAASGYTFGANVMGWYRQAPGKERELVAAINTRGSRTYYADSVNGRFTISRDNAKNTVYLQMNSLKPEDTAVYYCAAALRKEYDYWGQGTQVTVSS	high polyreactivity
QVQLVESGGGLVQAGGSLRLSCAASGYTFGFYAMGWYRQAPGKERELVAAISRSGGRTYYADSVKGRFTISRDNAKNTVYLQMNSLKPEDTAVYYCAAYQYGMDYWGQGTQVTVSS	high polyreactivity
QVQLVESGGGLVQAGGSLRLSCAASGYTFGFYGMGWYRQAPGKERDLVAAISRSGGGSTYYADSVKGRFTISRDNAKNTVYLQMNSLKPEDTAVYYCNRDFDDEMWGQGTQVTVSS	low polyreactivity
QVQLVESGGGLVQAGGSLRLSCAASGYTFGQNAMGWYRQAPGKEREFVAAISWSGTSTYYADSVKGRFTISRDNAKNTVYLQMNSLKPEDTALYYCAARSYRYVSRREYWGQGTQVTVSS	high polyreactivity
QVQLVESGGGLVQAGGSLRLSCAASGYTFGSNVMGWYRQAPGKERELVAAITFSGGSTYYADSVKRRFTISRDNAKNTVFLLMIRLKPEDTAVYYCAVRYVRYYAWYYYWGQGTQVTVSS	high polyreactivity
QVQLVESGGGLVQAGGSLRLSCAASGYTFGWYAMGWYRQAPGTERELVAGISSAGSTNYADSVKGRFTISRDNAKNTVYLQMNSLKPEDTAVYYCARDKWGLRYAPTVDYWGQGTQLTVSS	high polyreactivity
QVQLVESGGGLVQAGGSLRLSCAASGYTFGYNALGWYRQAPGKERELVAAISNGGSTNYADSVKGRFTISRDNAKNTVYLQMNSLKPEDTAVYYCAAASRLHIGYWRYDFWGQGTQVTVSS	low polyreactivity
QVQLVESGGGLVQAGGSLRLSCAASGYTFHDYAMGWYRQAPGKERELVAAISKRGGSTYYADSVKGRFTISRDNAKNTVYLQMNSLKPEDTAVYYCAKGGPHRGTGLNDYWGQGTQVTVSS	high polyreactivity
QVQLVESGGGLVQAGGSLRLSCAASGYTFHYNTMGGYRQAPGKERELVATISDGGSTNYADSVKGRFTISRDNAKNTVYLQMNSLKPEDTAVYYCAALYQQFQSALVPYFDVIEEDYWGQGTQVTVSS	low polyreactivity
QVQLVESGGGLVQAGGSLRLSCAASGYTFIVNAIGWYRQAPGKERELVAGISYRGGRTFYADSVKGRFTISRDNAKNTVYLQMNSLKPEDTAVYYCAARKTGIPFYNYDYWGQGTQVTVSS	low polyreactivity

Sequence	polyreactivity (PSR sort gate)
QVQLVESGGGLVQAGGSLRLSCAASGYTFNNYAMGWYRQAPGKERELVAAISSSGGSTYYADSVKGRFTISRDNAKNTRYFQMNSLKPEDTAVYYGDGRPFGHGDYRGYYYWGQGTQVTVSS	low polyreactivity
QVQLVESGGGLVQAGGSLRLSCAASGYTFNPYVMGWYSQAPGKERELVAAISSGGSTSYADSVKGRFTISRDNAKNTVYLQMNSLKPEDTAVYYCAADWSYYYSRNYESDYWGQGTQVTVSS	low polyreactivity
QVQLVESGGGLVQAGGSLRLSCAASGYTFPLYAMGWYRQAPGKERELVADINIGGASTYYADSVKGRFTISRDNAKNTVYLQMYSLKPEDTAVYYCAKEYYDGYFPTFDYDYWGQGTQVTVSS	low polyreactivity
QVQLVESGGGLVQAGGSLRLSCAASGYTFPLYAMGWYTQAPGKERELVADINIGGASTYYADSVKGRFTISRDNAKNTVYLQMNSLKPEDTAVYDCAKEYYDGYFPTFEYDYWGQGTQVTVSS	low polyreactivity
QVQLVESGGGLVQAGGSLRLSCAASGYTFPSYALGWYRQAPGKERELVAVITIGGTYYADSVKGRFTISRDNAKNTVYLQMNSLKPEDTAVYYCAADWAWDYYRGFDYLGQGTQVTVSS	low polyreactivity
QVQLVESGGGLVQAGGSLRLSCAASGYTFPYYTMGWYRQAPGKERELVAAISSGGRTKYADSVKGRFTISRDNAKNTVYLQMNSMKPEDTAVYYCNAVHSPAQCRSKYYPYNYWGQGTQVTVSS	high polyreactivity
QVQLVESGGGLVQAGGSLRLSCAASGYTFQENAMGWYRQAPGKERELVAAISYGGGSTYYADSVKGRFTISRDNAKNTVYLQMNRLKPEDTAVYYCADDGGSAYAWYFAELYGYWGQGTQVTVSS	low polyreactivity
QVQLVESGGGLVQAGGSLRLSCAASGYTFQHYGMGWYRQAPGKERELVAAITRRGSGTYYADSVKGRFTISRDNAKNTVYLQMNRLKPEDTAVYYCAAAVGHGVDYWGQGTQVTVSS	high polyreactivity
QVQLVESGGGLVQAGGSLRLSCAASGYTFQTYAMGCYRQAPGKERELVAAITRSGTRTYYADSVKGRFTISRDNAKNTVYLQMYSLKPEDTAVYYCAAETYYSIYDYWGQGTQVTVSS	high polyreactivity
QVQLVESGGGLVQAGGSLRLSCAASGYTFQWYDMGWYRQAPGKERELVASISWRGGSTYYADSVKGRFTISRDNAKNTVYLQMNSLKPEDTAVYYCAASLWPDYEYDYWGQGTQVTVSS	low polyreactivity
QVQLVESGGGLVQAGGSLRLSCAASGYTFQYNDMGWYRQAPGKERELVAGISIGGSTNYADSVKGRFTISRDNAKNTVYLQMNSLKPEDTAVYYCAARTLWFPGTTSTSVGSKYGYWGQGTQVSVSS	low polyreactivity
QVQLVESGGGLVQAGGSLRLSCAASGYTFRLYAMGWYRQAPGKERELVAAITSRGGTFYADSVKGRFTLSRDNAKNTVYLQMNSLKPEDTAVYYCAVAPNYPDFRRAIYLYDYWGQGTQLTVSS	low polyreactivity
QVQLVESGGGLVQAGGSLRLSCAASGYTFRRYAMGWYRQAPGKERELVAAINYSGGSTYYADSVKGRFTISRDNSKNTVYLQMNSLKPEDTAVYYCAARVPSPYVATYYYWGQGTQVTVSS	high polyreactivity
QVQLVESGGGLVQAGGSLRLSCAASGYTFRSYAMGWYRQAPGKEREFVASISSSGGSTYYADSVKGRFTISRDNAKNTVYLQMNSLKPEDTAVYYCAASVGSYPYDEYDYWGQGTQVTVSS	low polyreactivity
QVQLVESGGGLVQAGGSLRLSCAASGYTFRTNVMGWYRQAPGKERELVAAISSDGSTNYADSVKGRFTISRDNAKNTVYLQMNSLKPEDTAVYYCAAPWTQILDYWGQGTQVTVSS	low polyreactivity
QVQLVESGGGLVQAGGSLRLSCAASGYTFRWYVMGWYRQAPGKERELVAAISQSGGDTYYADSVKGRFTISRDNAKNTVYLQMNSLKPEDTAVYYCAVGRVGRFYYWGQGTQVTVSS	high polyreactivity
